Molecular target: Fcγ受体(FcγR)
Experiment: cell-based or functional assay

- T cell activation in vivo (markers on splenocytes of dosed Balb/c mice, flow cytometry): 4 倍
Substance: 2C11 huG1, HEK (145-2C11 variable regions on human IgG1/kappa, expressed in HEK 293E cells) (from UniProt P01857 1-330) (antibody)

Reference: patent publication CN101627111A
